The target of assay [1] is T1, LN3 (long negative designed polypeptide).
T1 construct: Synthetic 48-residue polyanion; also called negative 48-residue peptide
T1 peptide: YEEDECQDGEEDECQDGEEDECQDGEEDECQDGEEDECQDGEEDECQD
The assay is described as follows: QCM, electrostatic layer-by-layer adsorption of oppositely charged peptides, pH 7.4, 1 mM DTT (pairs named in paragraph 153). The procedure:
(§1) The polypeptide molecular weight was verified by electrospray mass spectrometry. Peptide purity was greater than 70%. The polypeptide buffer was 10 mM sodium phosphate or 10 mM Tris-HCl, 1 mM DTT, 0.1 mM sodium azide, pH 7.4. All chemicals other than polypeptides were purchased from Sigma-Aldrich (USA).
(§2) Resonators were rinsed for 1 min. in pure water between subsequent adsorption cycles (removing perhaps 10-15% of weakly adsorbed material) and dried in a stream of gaseous N₂. Then the mass of the deposited peptide was measured indirectly by QCM. The mass measurement includes some water, despite drying, and low mass ions like K⁺, Na⁺, and Cl⁻. Partial interpenetration of neighboring layers of peptide is probable (see Decher, G. (1997) Science 227:1232; Schmitt et al. (1993) Macromolecules 26:7058; and Korneev et al. (1995) Physica B 214:954); this could be important for the efficiency of disulfide “locking.”
(§3) After adsorption of the polypeptide and rinsing and drying the QCM resonator, the resonant frequency of the resonator was measured. This enabled calculation of the frequency shift on adsorption and change in adsorbed mass. A decrease in frequency indicates an increase in adsorbed mass. […] Each of these combinations involved one negative polypeptide and one positive polypeptide, as required by ELBL.

In assay [2] the target is T2, SN1 (short negative designed polypeptide).
T2 construct: Synthetic 32-residue polyanion built from a 7-residue motif of human complement C3, with Gly linkers and an N-terminal Tyr
T2 peptide: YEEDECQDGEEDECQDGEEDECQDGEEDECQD
The assay is described as above. On the procedure:
as §1, §2, §3

Assay [3] has as its target T3, de novo-designed cysteine-containing negative polypeptide (SEQ ID NO: 6).
T3 peptide: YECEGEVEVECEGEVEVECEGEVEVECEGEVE
The assay is described as follows: QCM, layer-by-layer assembly, 10 mM Tris-HCl, 10 mM DTT, pH 7.4, 2 mg/mL peptide. The procedure: All assembly experiments using QCM were conducted in the same conditions, except that the samples to undergo oxidation were dried using air instead of nitrogen gas. The assembly conditions were 10 mM Tris-HCl, 10 mM DTT, pH 7.4. The nominal peptide concentration was 2 mg/mL. The number of layers formed was 14.

B1: SP2 (short positive designed polypeptide) (peptide)
peptide: YRRRRSVQGRRRRSVQGRRRRSVQGRRRRSVQ
notes: Synthetic 32-residue polycation built from a 7-residue motif of human lactotransferrin, with Gly linkers and an N-terminal Tyr
On to B1, for which the binding result in assay [1] and in assay [2] was “binds” throughout.

B2: LP4 (long positive designed polypeptide) (peptide)
peptide: YRRRRSVQGRRRRSVQGRRRRSVQGRRRRSVQGRRRRSVQGRRRRSVQ
notes: Synthetic 48-residue polycation
Take B2: the binding result in assay [1] is “binds”.

B3: de novo-designed cysteine-containing positive polypeptide (SEQ ID NO: 5) (peptide)
peptide: YKCKGKVKVKCKGKVKVKCKGKVKVKCKGKVK
As for B3, the binding result in assay [3] is given as “binds”.

For the origin of these results see patent publication US20090233074A1 (ARTIFICIAL CELL TECHNOLOGIES, published 2009).
